# Test results: patent US20240101645A1 (HENRY M JACKSON FOUNDATION FOR THE ADVANCEMENT OF MILITARY …, published 2024)
# Assays:
# [1] = target: SARS-CoV-1 spike antigens (bead panel) (SARS-CoV-1, UniProt P59594 14-1195); experiment: multiplex bead assay
# [2] = target: T1, HCoV-229E spike antigens (bead panel) (HCoV-229E, UniProt P15423 16-1115); experiment: multiplex bead assay
# T1 sequence: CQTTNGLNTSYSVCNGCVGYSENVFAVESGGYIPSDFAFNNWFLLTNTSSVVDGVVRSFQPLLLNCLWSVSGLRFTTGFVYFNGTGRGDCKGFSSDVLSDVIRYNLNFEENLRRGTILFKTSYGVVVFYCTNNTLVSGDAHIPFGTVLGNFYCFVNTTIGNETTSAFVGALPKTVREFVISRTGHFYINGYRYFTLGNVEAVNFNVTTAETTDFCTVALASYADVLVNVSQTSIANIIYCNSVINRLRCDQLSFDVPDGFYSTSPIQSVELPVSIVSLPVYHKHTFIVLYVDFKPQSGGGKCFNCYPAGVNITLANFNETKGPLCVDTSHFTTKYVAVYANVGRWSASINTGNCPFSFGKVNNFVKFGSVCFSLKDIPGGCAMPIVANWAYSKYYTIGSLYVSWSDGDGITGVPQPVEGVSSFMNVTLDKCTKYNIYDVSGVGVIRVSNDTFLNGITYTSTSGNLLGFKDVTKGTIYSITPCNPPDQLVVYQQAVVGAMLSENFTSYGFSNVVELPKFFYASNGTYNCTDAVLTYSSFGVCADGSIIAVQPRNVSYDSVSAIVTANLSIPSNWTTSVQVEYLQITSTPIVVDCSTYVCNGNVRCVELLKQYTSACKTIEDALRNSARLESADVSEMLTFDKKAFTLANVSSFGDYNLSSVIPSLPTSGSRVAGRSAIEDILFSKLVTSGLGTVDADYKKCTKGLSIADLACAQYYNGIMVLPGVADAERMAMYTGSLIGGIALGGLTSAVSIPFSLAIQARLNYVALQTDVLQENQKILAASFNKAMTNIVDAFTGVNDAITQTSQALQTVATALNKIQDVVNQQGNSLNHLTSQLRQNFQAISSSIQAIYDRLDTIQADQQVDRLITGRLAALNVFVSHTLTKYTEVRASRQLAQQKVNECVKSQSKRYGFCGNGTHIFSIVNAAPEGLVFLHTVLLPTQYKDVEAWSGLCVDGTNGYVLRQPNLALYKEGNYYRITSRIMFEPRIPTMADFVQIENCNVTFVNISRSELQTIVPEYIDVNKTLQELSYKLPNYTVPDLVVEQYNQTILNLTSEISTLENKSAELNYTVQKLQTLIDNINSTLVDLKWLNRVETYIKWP
# [3] = target: T2, HCoV-HKU1 spike antigens (bead panel) (HCoV-HKU1, UniProt Q5MQD0 13-1300); experiment: multiplex bead assay
# T2 sequence: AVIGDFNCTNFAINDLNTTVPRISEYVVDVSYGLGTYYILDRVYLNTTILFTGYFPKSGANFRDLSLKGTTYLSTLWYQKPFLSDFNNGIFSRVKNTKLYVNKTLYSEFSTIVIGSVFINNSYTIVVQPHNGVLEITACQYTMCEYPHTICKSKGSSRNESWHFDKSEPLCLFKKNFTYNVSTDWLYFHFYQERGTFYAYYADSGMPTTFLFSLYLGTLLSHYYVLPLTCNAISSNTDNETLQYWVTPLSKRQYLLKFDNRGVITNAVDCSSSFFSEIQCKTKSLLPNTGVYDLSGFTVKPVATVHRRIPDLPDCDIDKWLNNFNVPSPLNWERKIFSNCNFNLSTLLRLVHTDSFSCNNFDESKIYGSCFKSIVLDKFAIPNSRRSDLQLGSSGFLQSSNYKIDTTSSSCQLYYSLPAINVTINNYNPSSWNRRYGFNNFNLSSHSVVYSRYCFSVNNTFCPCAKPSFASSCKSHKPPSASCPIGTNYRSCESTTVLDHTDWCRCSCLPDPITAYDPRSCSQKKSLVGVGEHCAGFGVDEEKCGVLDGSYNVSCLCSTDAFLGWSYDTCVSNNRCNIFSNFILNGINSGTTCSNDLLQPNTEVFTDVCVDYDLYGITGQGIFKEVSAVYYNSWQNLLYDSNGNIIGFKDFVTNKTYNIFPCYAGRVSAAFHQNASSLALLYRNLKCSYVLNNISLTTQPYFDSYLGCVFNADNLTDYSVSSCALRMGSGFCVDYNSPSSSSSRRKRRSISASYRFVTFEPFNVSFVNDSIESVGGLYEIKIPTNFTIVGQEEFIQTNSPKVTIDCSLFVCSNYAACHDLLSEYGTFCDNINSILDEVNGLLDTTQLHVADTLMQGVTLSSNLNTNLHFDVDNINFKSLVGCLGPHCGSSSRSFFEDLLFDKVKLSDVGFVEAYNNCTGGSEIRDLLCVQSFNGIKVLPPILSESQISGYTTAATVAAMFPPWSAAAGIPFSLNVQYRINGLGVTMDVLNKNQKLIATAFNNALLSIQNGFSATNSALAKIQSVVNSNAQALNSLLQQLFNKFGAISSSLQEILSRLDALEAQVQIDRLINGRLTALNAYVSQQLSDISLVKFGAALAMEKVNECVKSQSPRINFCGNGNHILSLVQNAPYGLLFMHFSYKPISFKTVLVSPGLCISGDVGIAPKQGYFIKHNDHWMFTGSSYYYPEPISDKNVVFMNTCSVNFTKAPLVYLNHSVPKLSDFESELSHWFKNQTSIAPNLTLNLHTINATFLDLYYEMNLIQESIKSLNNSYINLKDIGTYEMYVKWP
# [4] = target: SARS-CoV-2 S on pseudovirions (Wuhan Hu-1 / IL1/2020, last 18 amino acids removed) (SARS-CoV-2, UniProt P0DTC2 14-1273); experiment: cell-based or functional assay
Binder,binding result [1],binding result [2],binding result [3],"Mean IC50, pSV neutralization [4] [µg/ml]","Mean IC80, pSV neutralization [4] [µg/ml]"
"COV_1118 (antibody, V domains shown, human IgG1) VH: EVQLVESGGGLVKPGGSLRLSCAASGFSFSNYNMNWVRQAPGKGLEWVSYISSSSSYIYYADSVKGRFTISRDNAKNSLYLQMNSLRGEDTAVYSCAREASGAYYFDRSGYFDYWGQGTLVTVSP VL: not shown",no binding,no binding,no binding,–,–
"COV_2137 (antibody, V domains shown, human IgG1) VH: EVQLVESGGGLVKPGGSLRLSCAASGFTFSSYTMNWVRQAPGKGLEWVSSISSGSSFIYYADSLRGRFTISRDNAKNSLYLQMNSLRAEDTAVYYCARAPEPQSVIYAYWYFDLWGRGTLVTVSS VL: QSALTQPASVSGSPGQSITFSCTGTSSDVGSYNLVSWYQQYPGKAPKLMIYEVNKRPSGVSNRFSGSKSGNTASLTISGLQAEDEADYYCCSYAGSSTFYVFGTGTKVTVLG",no binding,no binding,no binding,–,–
"COV_2134 (antibody, V domains shown, human IgG1) VH: EVQLVESGGGVVQPGRSLRLSCAASGFIFSSYGMYWVRQAPGKGLEWVAVIWYDGSNKYYADSVKGRFTISRDNSKNTLYLQMNSLRAEDTAVYYCARDLSSSSGWDDYYYYYGMDVWGQGTTVTVSS VL: not shown",–,no binding,no binding,16.1,≥ 25
"COV_3053 (antibody, V domains shown, human IgG1) VH: EVQLVESGGGLVQPGRSLRLSCTASGFTLGDYAMTWVRQAPGKGLEWLGIIRNKRYGETKQYAASVKGRFTFSRDDSKGIGYLQRLSLKIEDTGVYYCTREHIVRDDAFDVWGQGTTVTVSS VL: DIVMTQSPDSLAVSLGERATINCKSSQSVLYSSNNKNYIAWYQQRPGQPPKLLIYWTSTRASGVPDRFSGSGSGTDFALTISSLQAEDVAVYYCQQYYTIPRTFGQGTKVEIK",no binding,no binding,no binding,–,–
"COV_2193 (antibody, V domains shown, human IgG1) VH: QVQLVQSGAEVKKPGASVKVSCKVSGYTLTDLSMHWVRQTPGKGLEWMGGFDAEDGETIYAQNFQGRVTMTEDTSIDVAYMELSSLRSEDTAVYYCATGSVGPDYWGQGTLVTVSS VL: SSELTQDPAVSVALGQTVRITCQGDSLRSYYASWFQQKPGQAPVLVIYLKNDRPSGIPDRFSGSSSGNTASLTITGAQAEDEADYYCNSRDSSGNHQVFGGGTKLTVL",–,no binding,no binding,≥ 25,≥ 25
"COV_2100 (antibody, V domains shown, human IgG1) VH: EVQLVESGGGLVQPGGSLRLSCAASGFTFSSYDMYWVRQATGKGLEWVSAIGTAGDTYYPGSVKGRFTISRENAKNSLYLRMNSLRAGDTAVYFCARADKNTAMFFDYWGQGTLVTVSS VL: DIQMTQSPSSLSASVGDRVTITCRASQNINNFLHWYQQKPGNAPKLLIYAASTLQSGVPSRFSGSGSGTDFTLTISSLQPEDFATYYCQQSYSTPGGTFGGGTKVEIK",–,no binding,no binding,23,≥ 25
"COV_2035 (antibody, V domains shown, human IgG1) VH: QVQLVQSGAEVKKPGASVKVSCKVSGYTLPELSIHWVRQAPGKGLEWLGGFDPEDGKIIYAQKFQGRVTMTEDTSTDTAYMELSSLRSEDTAVYYCATSPAVVERGWFDPWGQGTLVTVSS VL: QSALTQPPSASGSPGQSVTISCTGTSSDVGGYNYVSWYQQHPGKAPKLMIYEVSKRPSGVPDRFSGSKSGNMASLTVSGLQAEDEANYYCSSYAGSKRVFGGGTKLTVL",no binding,no binding,–,0.04,≥ 25
